Experimental findings from patent US20220064329A1 (Novo Nordisk, published 2022) are described below.

Holding throughout (assay): SPR, ratio of KD to KD of WT
In one assay the target is T1, FVII(a) variant P251A (human, UniProt P08709 61-466).
T1 construct: hFVII alanine variant in cell culture supernatant
T1 sequence: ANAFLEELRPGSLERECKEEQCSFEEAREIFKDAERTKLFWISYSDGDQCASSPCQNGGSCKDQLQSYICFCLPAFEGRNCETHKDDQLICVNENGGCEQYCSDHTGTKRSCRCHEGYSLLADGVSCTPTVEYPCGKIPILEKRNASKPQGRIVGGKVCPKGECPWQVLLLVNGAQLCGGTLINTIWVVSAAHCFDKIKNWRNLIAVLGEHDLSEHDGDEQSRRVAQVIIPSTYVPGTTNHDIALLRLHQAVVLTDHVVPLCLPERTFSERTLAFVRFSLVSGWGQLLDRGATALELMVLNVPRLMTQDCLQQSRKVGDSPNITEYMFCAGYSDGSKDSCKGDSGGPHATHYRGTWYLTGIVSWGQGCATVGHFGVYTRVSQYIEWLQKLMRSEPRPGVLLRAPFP
How it is done: (§1) The running buffer was prepared by diluting 10-fold the 10×HBS-P buffer (supplied by GE Healthcare) and supplemented with 1 mg/ml BSA and 5 mM CaCl2 to give 10 mM HEPES, 150 mM NaCl, 0.05% v/v Polysorbate 20, pH 7.4, 5 mM CaCl2, 1 mg/ml bovine serum albumin (BSA). […] Regeneration of the chip was achieved using 10 mM HEPES, 150 mM NaCl, 20 mM EDTA, 0.05 v/v Polysorbate 20, pH 7.4. Binding data were analysed according to a 1:1 Kinetic model and steady state analysis using BiaEvaluation 4.1 supplied by the manufacturer (Biacore AB, Uppsala, Sweden). Wherever possible, ka, kd and KD values from 1:1 kinetic fitting model are reported. […] An amino acid residue is considered a hot-spot residue if substitution of that amino acid residue with alanine results in an affinity reduction of ten (10) fold or more relative to the wild type.

The target in a further assay is T2, FVII(a) variant M391A (human, UniProt P08709 61-466).
T2 construct: hFVII alanine variant in cell culture supernatant
T2 sequence: T1 sequence with A251P, M391A
How it is done: as §1

The next assay has as its target T3, FVII(a) variant E394A (human, UniProt P08709 61-466).
T3 construct: hFVII alanine variant in cell culture supernatant
T3 sequence: T1 sequence with A251P, E394A
How it is done: as §1

A further assay addresses T4, FVII(a) variant R113A (human, UniProt P08709 61-466).
T4 construct: hFVII alanine variant in cell culture supernatant
T4 sequence: T1 sequence with R113A, A251P
How it is done: as §1

In another assay the target is T5, FVII(a) variant Y118A (human, UniProt P08709 61-466).
T5 construct: hFVII alanine variant in cell culture supernatant
T5 sequence: T1 sequence with Y118A, A251P
The method, then: as §1

Numbering of substitutions follows the chain as printed.

B1: mAb0842(OA) (antibody, human IgG4 S228P, kappa)
heavy: QVQLQESGPGLVKPSQTLSLTCTVSGYSISSDSAWSWIRQPPGKGLEWIGYIQYSGSTNYNPSLKSRVTISRDTSKNQFSLKLSSVTAADTAVYYCARSVNYYGNSFAVGYWGQGTLVTVSSASTKGPSVFPLAPCSRSTSESTAALGCLVKDYFPEPVTVSWNSGALTSGVHTFPAVLQSSGLYSLSSVVTVPSSSLGTKTYTCNVDHKPSNTKVDKRVESKYGPPCPPCPAPEFLGGPSVFLFPPKPKDTLMISRTPEVTCVVVDVSQEDPEVQFNWYVDGVEVHNAKTKPREEQFNSTYRVVSVLTVLHQDWLNGKEYKCKVSNKGLPSSIEKTISKAKGQPREPQVYTLPPSQEEMTKNQVSLSCAVKGFYPSDIAVEWESNGQPENNYKTTPPVLDSDGSFFLVSRLTVDKSRWQEGNVFSCSVMHEALHNHYTQKSLSLSLGK
light: EIVLTQSPATLSLSPGERATLSCRASQGISDYLHWYQQKPGEAPRLLIKYTSQPATGIPARFSGSGSGTDFTLTISSLEPEDFAVYYCQNGHSFPLTFGQGTKLEIKRTVAAPSVFIFPPSDEQLKSGTASVVCLLNNFYPREAKVQWKVDNALQSGNSQESVTEQDSKDSTYSLSSTLTLSKADYEKHKVYACEVTHQGLSSPVTKSFNRGEC
chain: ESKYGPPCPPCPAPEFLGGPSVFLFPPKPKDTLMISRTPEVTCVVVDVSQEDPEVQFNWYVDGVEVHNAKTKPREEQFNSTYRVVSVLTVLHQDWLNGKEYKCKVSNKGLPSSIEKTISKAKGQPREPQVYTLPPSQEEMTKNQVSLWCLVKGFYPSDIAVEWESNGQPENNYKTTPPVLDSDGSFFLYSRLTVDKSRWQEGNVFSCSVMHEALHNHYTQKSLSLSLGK
notes: also called monovalent humanized 11F2 antibody; one-armed anti-FVII(a) antibody
Regarding B1, the “Fold diff (Variant/WT)” value with FVII(a) variant P251A came out at 2.8 fold; with FVII(a) variant M391A, 0.8 fold; with FVII(a) variant E394A, 2.6 fold; with FVII(a) variant R113A, 1 fold; in the assay with FVII(a) variant Y118A, 4.9 fold.
